The text below walks through data of patent publication US20050250700A1 (BRACCO SUISSE, published 2005).

Assay [1] deals with T1, KDR (VEGFR-2), full-length receptor on cells (human, UniProt P35968 20-1356).
T1 construct: whole, on cells; the assay field tells which cells; also called KDR-expressing cells
In words: saturation binding of peptide/neutravidin-HRP complex, KDR- minus mock-transfected 293H cells. As to the method:
After incubation at room temperature, plates were transferred to 4° C. for another half-hour incubation. Subsequently, cells were washed 5 times with ice-cold M199 media and once with ice-cold PBS (in that order). After the final wash, 100 μl of ice cold TMB solution (KPL, cat. # 50-76-00) was added to each well and each plate was incubated for 30 minutes at 37° C. in an air incubator.
Therefore, absorbance on the Y-axis of FIG. 1 is differential absorbance (KDR minus mock) and not the absolute absorbance.

Assay [2] has as its target T1, KDR (VEGFR-2), full-length receptor on …. Nature of the assay: cell-based or functional assay.
For assay [3], the target named is T2, chimeric fusion of Ig Fc region with human KDR (human, UniProt P35968 20-764).
T2 construct: bought, carrier-free; also called KDR-Fc; KDR Fc fusion; not shown: Ig Fc region
T2 sequence (P35968 20-764, change not shown): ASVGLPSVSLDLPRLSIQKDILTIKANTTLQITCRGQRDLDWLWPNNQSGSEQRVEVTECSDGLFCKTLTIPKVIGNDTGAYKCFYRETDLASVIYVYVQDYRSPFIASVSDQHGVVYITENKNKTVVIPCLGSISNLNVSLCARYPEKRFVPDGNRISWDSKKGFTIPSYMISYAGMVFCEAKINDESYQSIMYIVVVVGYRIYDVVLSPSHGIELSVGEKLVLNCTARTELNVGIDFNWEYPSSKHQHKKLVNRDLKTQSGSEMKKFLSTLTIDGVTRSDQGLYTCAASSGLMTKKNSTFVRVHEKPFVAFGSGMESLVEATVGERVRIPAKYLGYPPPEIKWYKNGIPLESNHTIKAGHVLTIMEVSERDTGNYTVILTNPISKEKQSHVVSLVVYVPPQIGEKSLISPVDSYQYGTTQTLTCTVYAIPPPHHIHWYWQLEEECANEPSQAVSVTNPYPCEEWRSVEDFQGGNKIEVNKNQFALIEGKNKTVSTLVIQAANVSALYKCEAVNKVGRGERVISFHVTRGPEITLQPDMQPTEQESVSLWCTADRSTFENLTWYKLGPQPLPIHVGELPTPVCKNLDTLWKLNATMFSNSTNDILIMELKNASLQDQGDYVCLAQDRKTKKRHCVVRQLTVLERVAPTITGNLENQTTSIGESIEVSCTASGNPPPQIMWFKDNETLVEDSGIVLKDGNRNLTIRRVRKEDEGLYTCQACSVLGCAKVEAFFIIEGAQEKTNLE
In words: BIAcore steady state, KD1, KDR-Fc 1600 RU. (SPR reads the build-up and loss of mass on a sensor chip optically.)

In assay [4] the target is T2, chimeric fusion of Ig Fc region with …. Nature of the assay: BIAcore steady state, KD1, KDR-Fc 3000 RU. Here is the method:
(§1) The heterodimer was tested for binding to KDR-Fc using Biacore, and an affinity constant was determined as follows.
(§2) All samples were injected in duplicate. […] Following a 10 minute dissociation, any remaining peptide was stripped from the KDR surface with a quickinject of 50 mM NaOH+1 M NaCl for 12 s at 75 μL/min. Sensorgrams were analyzed using BIAevaluation software 3.1 and a hyperbolic double rectangular regression equation in SigmaPlot 6.0.

The target is the same in assay [5]. In words: BIAcore steady state, KD1, KDR-Fc 6000 RU. Here is the method:
as §1, §2

The target is the same in assay [6]. In words: BIAcore steady state, KDAV, KDR-Fc 1600 RU. Here is the method:
as §1, §2

The target is the same in assay [7]. In words: BIAcore steady state, KDAV, KDR-Fc 3000 RU. As to the method:
as §1, §2

Assay [8] shares this target. Nature of the assay: BIAcore steady state, KDAV, KDR-Fc 6000 RU. As to the method:
as §1, §2

Assay [9] shares this target. Nature of the assay: BIAcore steady state at the higher immobilization densities. Here is the method: as §2
For assay [10], the target named is T1, KDR (VEGFR-2), full-length receptor on …. In words: 3.33 nM peptide mix/neutravidin-HRP complex on 293H cells. As to the method: Peptide stock solutions were stored at −20C, whereas the Neutravidin HRP stock solution was stored at −80C. […] Fresh peptide/neutravidin HRP complexes were prepared for each experiment.
After incubation at room temperature, plates were transferred to 4C for another half-hour incubation. Subsequently, cells were washed five times with ice-cold M199 media and once with ice-cold PBS (in that order). After the final wash, 100 μL of ice cold TMB solution (KPL, Gaithersburg, Md.) was added to each well and each plate was incubated for 30 minutes at 37C in an air incubator.

The target is the same in assay [11]. Nature of the assay: competitor 125I-VEGF (300 pM) on KDR-transfected 293H cells; peptide 30 µM. Here is the method:
(§3) Preparation of 30 μM and 0.3 μM peptide solution in 300 pM ¹²⁵I-labeled VEGF: For each 96 well plate, 10 mL of 300 pM ¹²⁵I-labeled VEGF in M199 medium was prepared at 4° C. Each peptide solution (3 mM, prepared as described above) was diluted 1:100 and 1:10000 in 300 μl of M199 media with 300 pM ¹²⁵I-labeled VEGF to prepare 30 μM and 0.3 μM peptide solutions containing 300 pM of ¹²⁵I-labeled VEGF. Once prepared, the solutions were kept on ice until ready to use. The dilution of peptides in M199 media containing 300 pM ¹²⁵I-labeled VEGF was done freshly for each experiment.
(§4) To calculate the specific binding to KDR, the binding of ¹²⁵I-labeled VEGF to mock-transfected cells was subtracted from KDR-transfected cells.

For assay [12] the target is unchanged. In words: competitor 125I-VEGF (300 pM) on KDR-transfected 293H cells; peptide 0.3 µM. As to the method: as §3, §4
For assay [13], the target named is T2, chimeric fusion of Ig Fc region with …. Nature of the assay: SPR; form of KDR not stated there.

Bridge positions count the residues as written; N and C are the ends. Side chains are listed from the residue outwards. Ends that are not written are not given here. I, II: the chains in the order shown. * marks the point of attachment. Biotin = O=C1N[C@H]2[C@H](CS[C@H]2CCCCC(=O)*)N1; AEEA = NCCOCCOCC(=O)O

T1 sequence (P35968 20-1356): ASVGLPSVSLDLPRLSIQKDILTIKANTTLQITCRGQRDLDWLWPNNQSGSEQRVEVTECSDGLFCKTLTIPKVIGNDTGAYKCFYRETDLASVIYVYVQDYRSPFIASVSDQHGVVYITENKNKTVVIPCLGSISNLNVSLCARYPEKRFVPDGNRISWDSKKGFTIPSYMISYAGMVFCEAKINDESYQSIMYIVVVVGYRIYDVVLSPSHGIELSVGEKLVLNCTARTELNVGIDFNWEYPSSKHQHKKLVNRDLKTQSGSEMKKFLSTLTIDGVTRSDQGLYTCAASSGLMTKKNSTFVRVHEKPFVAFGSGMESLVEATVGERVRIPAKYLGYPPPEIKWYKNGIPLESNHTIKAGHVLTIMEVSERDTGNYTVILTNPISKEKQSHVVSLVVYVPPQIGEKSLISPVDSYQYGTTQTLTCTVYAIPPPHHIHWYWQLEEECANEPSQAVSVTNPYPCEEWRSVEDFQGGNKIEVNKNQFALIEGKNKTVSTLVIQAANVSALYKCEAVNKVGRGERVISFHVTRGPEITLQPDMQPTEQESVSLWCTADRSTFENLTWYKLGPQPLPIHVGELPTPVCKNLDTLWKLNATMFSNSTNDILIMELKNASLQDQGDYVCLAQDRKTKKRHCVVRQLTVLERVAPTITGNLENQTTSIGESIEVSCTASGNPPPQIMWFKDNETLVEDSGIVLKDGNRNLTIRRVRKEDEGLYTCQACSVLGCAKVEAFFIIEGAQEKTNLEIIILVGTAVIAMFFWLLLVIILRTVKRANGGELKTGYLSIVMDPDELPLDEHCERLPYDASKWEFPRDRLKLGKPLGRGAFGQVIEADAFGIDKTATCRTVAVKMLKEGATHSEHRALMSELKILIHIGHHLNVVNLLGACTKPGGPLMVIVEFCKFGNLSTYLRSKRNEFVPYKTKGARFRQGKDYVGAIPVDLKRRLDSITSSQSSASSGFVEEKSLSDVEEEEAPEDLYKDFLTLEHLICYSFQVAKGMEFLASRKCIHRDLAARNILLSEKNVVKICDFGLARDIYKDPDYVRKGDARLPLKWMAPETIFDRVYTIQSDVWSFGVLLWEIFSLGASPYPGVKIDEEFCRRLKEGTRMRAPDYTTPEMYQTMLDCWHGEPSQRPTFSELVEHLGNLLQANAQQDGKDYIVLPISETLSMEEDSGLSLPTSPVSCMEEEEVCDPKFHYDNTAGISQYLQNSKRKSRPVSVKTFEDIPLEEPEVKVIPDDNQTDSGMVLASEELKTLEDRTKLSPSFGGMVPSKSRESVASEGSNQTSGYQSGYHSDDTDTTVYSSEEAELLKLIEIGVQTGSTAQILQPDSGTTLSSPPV

B1: tetrameric complex of biotinylated SEQ ID NO:294 (JJ spacer) with neutravidin-HRP (other)
peptide: Ac-GDSRVCWEDSWGGEVCFRYDPGGGK([AEEA-AEEA-Biotin])-NH2
modifications: disulfide 6-16 (inferred); also: tetrameric complex with neutravidin-HRP
notes: peptides held on neutravidin-HRP (Pierce 31001)
With B1, binding in assay [1] was characterised by a dissociation constant (Kd) of 10 nM.

B2: dimer 6 (D6) (peptide)
peptide 1: GDSRVCWEDSWGGEVCFRYDPGGGK
peptide 2: AGPTWCEDDWYYCWLFGTGGGK
modifications: disulfide I:6-I:16, II:6-II:13 (inferred); also: heterodimer joined by glutaric acid linkage
In the case of B2, the “IC50, VEGF-induced migration of HUVECs” value in assay [2] is around 12.5 nM. The “IC50, VEGF-induced migration of HUVECs, with 100 nM Adjunct A” value in assay [2] was around 2.5 nM. Also, the Kd (commonly the free concentration of one partner at which half of the binding sites on the other are occupied at equilibrium, for simple one-to-one binding) came out at 46 nM in [3]; 25.5 nM in assay [4]; 17 nM in assay [5]; 1.5 nM in assay [6]; 0.665 nM in assay [7]; 0.662 nM in [8]. In [9], this molecule had a dissociation constant Kd of around 0.6 nM.

B3: tetrameric neutravidin-HRP complex of SEQ ID NO:294 and SEQ ID NO:264, ratio 1:3 (other)
peptide 1: Ac-GDSRVCWEDSWGGEVCFRYDPGGGK([AEEA-AEEA-Biotin])-NH2
peptide 2: Ac-AGPKWCEEDWYYCMITGTGGGK([AEEA-AEEA-Biotin])-NH2
modifications: disulfide I:6-I:16, II:6-II:13 (inferred); also: tetrameric neutravidin-HRP complex, chain ratio 1:3
notes: nominal composition
For the molecule B3, the binding result in assay [10] is “binds”.

B4: acetylated SEQ ID NO:294 without the modified C-terminus (SEQ ID NO:374) (peptide)
peptide: Ac-GDSRVCWEDSWGGEVCFRYDP
modifications: disulfide 6-16 (inferred)
As for B4, the “% inhibition of 125I-labeled VEGF binding” value turned out to be 96.3% in [11] and 52.3% in [12].

B5: dimer 28 (D28) (peptide)
peptide 1: AQEPEGYAYWEVITLYHEEDGDGGK
peptide 2: AQAFPRFGGDDYWIQQYLRYTDGGK
modifications: also: tail-to-tail heterodimer, linkage not given here
In turn, B5 had a Kd in [13] of 11 nM.

B6: SEQ ID NO:337, monomeric free peptide (peptide)
peptide: VCWEDSWGGEVCFRYDPGGGK
modifications: disulfide 2-12 (inferred)
Consider B6, for which the “IC50, receptor activation assay” value in assay [2] was found to be 1000 nM.

B7: tetrameric neutravidin-HRP complex of SEQ ID NO:294 and SEQ ID NO:264, ratio 3:1 (other)
peptide 1: Ac-GDSRVCWEDSWGGEVCFRYDPGGGK([AEEA-AEEA-Biotin])-NH2
peptide 2: Ac-AGPKWCEEDWYYCMITGTGGGK([AEEA-AEEA-Biotin])-NH2
modifications: disulfide I:6-I:16, II:6-II:13 (inferred); also: tetrameric neutravidin-HRP complex, chain ratio 3:1
notes: nominal composition
Turning to B7, in assay [10], the binding result is given as “binds”.

B8: tetrameric neutravidin-HRP complex of SEQ ID NO:294 and SEQ ID NO:264, ratio 2:2 (other)
peptide 1: Ac-GDSRVCWEDSWGGEVCFRYDPGGGK([AEEA-AEEA-Biotin])-NH2
peptide 2: Ac-AGPKWCEEDWYYCMITGTGGGK([AEEA-AEEA-Biotin])-NH2
modifications: disulfide I:6-I:16, II:6-II:13 (inferred); also: tetrameric neutravidin-HRP complex, chain ratio 2:2
notes: nominal composition
With B8, the binding result in assay [10] is “binds”.
